US6348573B1, “Compositions and methods for identifying apoptosis signaling pathway inhibitors and activators” (The Regents of the University of Michigan, priority 1998, dated 2002)

Experiments:
RICK = RICK (Homo sapiens, UniProt O43353); test: Autophosphorylation of RICK; settings: immunoprecipitated from 293T cells, [γ-32P]ATP
FADD = molecular target: T1, FADD (Homo sapiens, UniProt Q13158); test: In vitro phosphorylation of recombinant FADD by RICK immunoprecipitates; type: biochemical; settings: immunoprecipitates from 293T cells, 5 μM [γ-32P]ATP
T1 construct: made in house
T1 sequence (Q13158 1-208): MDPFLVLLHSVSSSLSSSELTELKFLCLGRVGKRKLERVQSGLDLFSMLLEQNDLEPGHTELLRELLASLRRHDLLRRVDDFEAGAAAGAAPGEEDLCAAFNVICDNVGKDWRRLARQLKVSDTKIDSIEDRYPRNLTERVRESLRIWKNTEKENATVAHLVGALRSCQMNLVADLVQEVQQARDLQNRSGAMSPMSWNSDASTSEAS
Excerpt: CIPERK proteins in total lysate were detected by immunoblotting with mAb to Flag (middle panel). Recombinant FADD on the same filter used in (A) was detected by immunoblotting, with rabbit polyclonal anti-(His)6 antibody (lower panel). Note CIPERK was autophosphorylated. The estimated molecular size is shown on the left [293T cells were transfected with vector control or plasmid expressing Flag-CIPERK (WT) or Flag-CIPERK-K38M (mt), and then CIPERK proteins were immunoprecipitated by mAb to Flag and incubated with recombinant FADD and 5 μM [γ-^32P]ATP].

Chain of RICK (O43353 with tags, fused parts or gaps): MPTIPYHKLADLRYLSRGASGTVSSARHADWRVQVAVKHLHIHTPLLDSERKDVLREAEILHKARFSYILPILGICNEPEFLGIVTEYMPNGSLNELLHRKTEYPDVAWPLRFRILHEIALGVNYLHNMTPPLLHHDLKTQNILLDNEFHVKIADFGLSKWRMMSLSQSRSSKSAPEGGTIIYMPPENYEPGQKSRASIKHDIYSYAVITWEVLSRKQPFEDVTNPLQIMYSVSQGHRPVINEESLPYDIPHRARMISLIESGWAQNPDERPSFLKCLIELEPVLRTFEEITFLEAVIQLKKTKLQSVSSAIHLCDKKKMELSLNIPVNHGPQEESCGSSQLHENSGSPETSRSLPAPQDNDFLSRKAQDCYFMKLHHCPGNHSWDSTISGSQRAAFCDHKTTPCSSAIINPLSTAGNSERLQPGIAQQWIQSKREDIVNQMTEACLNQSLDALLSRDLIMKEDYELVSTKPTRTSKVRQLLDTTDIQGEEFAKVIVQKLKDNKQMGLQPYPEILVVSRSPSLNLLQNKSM

## RICK-K38M: RICK ATP-binding site mutant, lysine at position 38 replaced by methionine
RICK
  auto-phosphorylation in vitro: dramatically decreased
FADD
  phosphorylation of recombinant FADD: did not
